From US20080050387A1, “Non-Androgen Dependent Roles for Androgen Receptor and Non-Androgen Related Inhibitors of Androgen Receptor” (priority 2003, published 2008)

Target: T1, GR (Homo sapiens, UniProt P04150)
T1 construct: host or cells: H1299
T1 sequence (P04150 1-777): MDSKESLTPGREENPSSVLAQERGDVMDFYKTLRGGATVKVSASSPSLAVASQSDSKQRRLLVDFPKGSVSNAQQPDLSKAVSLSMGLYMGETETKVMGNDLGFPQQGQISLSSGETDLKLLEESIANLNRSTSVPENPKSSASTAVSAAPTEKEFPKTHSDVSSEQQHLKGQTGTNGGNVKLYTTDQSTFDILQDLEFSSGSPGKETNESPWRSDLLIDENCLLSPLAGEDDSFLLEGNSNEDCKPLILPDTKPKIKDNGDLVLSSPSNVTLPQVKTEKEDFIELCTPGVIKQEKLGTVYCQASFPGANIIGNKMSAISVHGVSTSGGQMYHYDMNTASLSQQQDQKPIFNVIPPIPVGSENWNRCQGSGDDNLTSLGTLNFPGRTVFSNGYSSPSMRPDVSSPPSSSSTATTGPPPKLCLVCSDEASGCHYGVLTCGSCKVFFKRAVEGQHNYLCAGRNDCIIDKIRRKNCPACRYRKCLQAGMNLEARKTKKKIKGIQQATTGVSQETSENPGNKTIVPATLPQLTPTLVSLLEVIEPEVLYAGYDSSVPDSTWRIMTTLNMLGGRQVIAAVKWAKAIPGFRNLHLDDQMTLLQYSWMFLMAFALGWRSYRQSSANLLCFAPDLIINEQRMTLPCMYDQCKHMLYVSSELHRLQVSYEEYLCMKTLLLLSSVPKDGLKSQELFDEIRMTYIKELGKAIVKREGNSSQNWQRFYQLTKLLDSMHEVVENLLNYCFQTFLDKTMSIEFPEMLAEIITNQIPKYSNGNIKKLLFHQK
Assay: GR transactivation reporter gene assay in H1299 cells with ARA67
Format: cell-based
Conditions: 500 ng pSG5-ARA67, MMTV-Luc, cognate ligand
Experimental: H1299 and COS-1 cells were maintained in Dulbecco's modified Eagle's medium (DMEM) (Life Technologies, Inc.) supplemented with 10% heat inactivated fetal bovine serum (FBS). LNCap cells were maintained in RPMI 1640 supplemented with […]. All media contain 100 units penicillin, 100 μg/ml streptomycin and 2 mM L-glutamine. Cells were seeded to a density of 50-60% confluency for transfection. In transfections where H1299 and COS-1 cells were used, the calcium phosphate precipitation method was used as described (Pan H J, et al. 1999. Endocrine 11:321-327) unless otherwise noted. […] In other reporter gene assays, where ligand treatment was required, cell culture media were changed to DMEM containing 10% charcoal-dextran-stripped FBS (CD-FBS) 2 h before transfection. After 16-18 h transfection, cells were treated with medium containing either vehicle or ligands for another 20-24 h and then cells were harvested. With LNCap cells transfection, the cells were treated with fresh RPMI 1640 containing 10% CD-FBS before transfection with SuperFect performed according to the manufacturer's protocol (Qiagen). After transfection, cells were allowed to recover in fresh RPMI 1640 containing 10% CD-FBS for 8-12 h, and then treated with either vehicle or ligands for another 20-24 h before harvesting. Each experiment was repeated at least three times.

suppression on GR: 20%
B1: ARA67: AR N-terminal interacting protein of 585 amino acids (SEQ ID NO:1), matches PAT1; functions as a repressor of AR (protein)
chain: MAAVELEWIPETLYNTAISAVVDNYIRSRRDIRSLPENIQFDVYYKLYQQGRLCQLGSEFCELEVFAKVLRALDKRHLLHHCFQALMDHGVKVASVLAYSFSRRCSYIAESDAAVKEKAIQVGFVLGGFLSDAGWYSDAEKVFLSCLQLCTLHDEMLHWFRAVECCVRLLHVRNGNCKYHLGEETFKLAQTYMDKLSKHGQQANKAALYGELCALLFAKSHYDEAYKWCIEAMKEITAGLPVKVVVDVLRQASKACVVKREFKKAEQLIKHAVYLARDHFGSKHPKYSDTLLDYGFYLLNVDNICQSVAIYQAALDIRQSVFGGKNIHVATAHEDLAYSSYVHQYSSGKFDNALFHAERAIGIITHILPEDHLLLASSKRVKALILEEIAIDCHNKETEQRLLQEAHDLHLSSLQLAKKAFGEFNVQTAKHYGNLGRLYQSMRKFKEAEEMHIKAIQIKEQLLGQEDYEVALSVGHLASLYNYDMNQYENAEKLYLRSIAIGKKLFGEGYSGLEYDYRGLIKLYNSIGNYEKVFEYHNVLSNWNRLRDRQYSVTDALEDVSTSPQSTEEVVQSFLISQNVEGPSC
